# Results published in patent CN114656564A (ANHUI ANKE BIOLOGICAL ENG GROUP CO LTD, dated 2022).
# T1: rhOX40-Avi-His (human, UniProt P43489 29-214)
# T1 construct: range 29-214; Recombinant protein made from plasmid pCD-OX40-Avi-His; also called OX40抗原; 抗原蛋白OX40; not shown: Avi tag; His tag
# T1 sequence (looked up): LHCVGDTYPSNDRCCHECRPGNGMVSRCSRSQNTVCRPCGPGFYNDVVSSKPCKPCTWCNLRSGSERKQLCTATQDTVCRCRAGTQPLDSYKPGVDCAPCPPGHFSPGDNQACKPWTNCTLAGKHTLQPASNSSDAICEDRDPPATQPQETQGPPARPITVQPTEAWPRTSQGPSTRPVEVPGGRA
# T2: human OX40 expressed on Jurkat cells (Jurkat-OX40-NFκB-Luc) (human, UniProt P43489 29-277)
# T2 construct: whole, on cells; also called Jurkat-OX40-NFκB-21C6; 表达OX40抗原的Jurkat细胞系
# T2 sequence (looked up): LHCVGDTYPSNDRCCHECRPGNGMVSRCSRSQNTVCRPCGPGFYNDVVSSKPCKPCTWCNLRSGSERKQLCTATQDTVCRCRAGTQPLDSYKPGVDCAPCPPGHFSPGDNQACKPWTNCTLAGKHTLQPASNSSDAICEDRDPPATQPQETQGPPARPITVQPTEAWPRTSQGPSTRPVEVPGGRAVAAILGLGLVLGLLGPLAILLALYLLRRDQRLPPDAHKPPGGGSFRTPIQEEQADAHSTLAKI
# T3: rhOX40-Avi-His-bio (human, UniProt P43489 29-214, biotin covalently attached to the Avi tag by BirA)
# T3 construct: range 29-214; Biotinylated form of rhOX40-Avi-His, captured on SA chip in SPR; also called 生物素标记的抗原; not shown: Avi tag (biotinylated); His tag
# T3 sequence (looked up): T1 sequence (looked up)
# B1: C7-Fc (Fc fusion)
# chain: DVQLVESGGGLVQPGGSLRLSCAASGSIPSDTAMYWFRQAPGKGREWVSVIWGSGVTYYADSVKGRFTISRDNAKNTVYLQMNSLRAEDTAVYYCARTGLGRAYWGQGTQVTVSA
# notes: not shown: IgG1 Fc region, from human
# B2: D1-Fc (Fc fusion)
# chain: DVQLVESGGGLVQPGGSLRLSCAASGRTASGYTIGWFRQAPGKGRELVSAINRAGSATHYADSVKGRFTISRDNAKNTVYLQMNSLRAEDTAVYYCARSGRWGRYWLAYWGQGTQVTVSA
# notes: as for B1
# B3: D2-Fc (Fc fusion)
# chain: DVQLVESGGGLVQPGGSLRLSCAASGLTSSLYIWGWFRQAPGKGREWVSTIWDADVTDYADSVKGRFTISRDNAKNTVYLQMNSLRAEDTAVYYCARRDFDSLADGLDYWGQGTQVTVSA
# notes: as for B1
# B4: A1-Fc (Fc fusion)
# chain: DVQLVESGGGLVQPGGSLRLSCAASGFSYNRTDIRWFRQAPGKGRELVAGIANWGGTTYYADSVKGRFTISRDNAKNTVYLQMNSLRAEDTAVYYCARRRYECVDWIVDPWWDYWGQGTQVTVSA
# notes: as for B1
# B5: D12-Fc (Fc fusion)
# chain: DVQLVESGGGLVQPGGSLRLSCAASGRQFGSYAMSWFRQAPGKGREWVSTIDSAGGSTNYADSVKGRFTISRDNAKNTVYLQMNSLRAEDTAVYYCARLIDWYCIDYFDYWGQGTQVTVSA
# notes: as for B1
# B6: D7-Fc (Fc fusion)
# chain: DVQLVESGGGLVQPGGSLRLSCAASGFTASIYGMRWFRQAPGKGRELVAGIVDAGSATYYADSVKGRFTISRDNAKNTVYLQMNSLRAEDTAVYYCARGNHEGEVGLDYWGQGTQVTVSA
# notes: as for B1
# Target: T1, rhOX40-Avi-His
# Experiment: ELISA on coated rhOX40-Avi-His
row,Binder,binding result
1,B1,binds
2,B2,binds
3,B3,binds
4,B4,binds
5,B5,binds

# Target: T2, human OX40 expressed on Jurkat cells …
# Experiment: flow cytometry on Jurkat cells expressing OX40, anti-human Fc-FITC
row,Binder,binding result
1,B2,binds
2,B3,binds
3,B4,binds

# Target: T3, rhOX40-Avi-His-bio
# Experiment: SPR (T200), biotinylated rhOX40-Avi-His-bio captured on SA chip, D7-Fc as analyte
row,Binder,Kd [nM]
1,B6,~16.8
